# Measurements taken from patent publication US20230250134A1 (University of Washington, published 2023).
# B1: LCB3_v1.2-GS-LCB1_v1.1 (3GS1) (designed binder)
# chain: NDDELHMQMTDLVYEALHFAKDEEIQKHVFQLFEKATKAYKNKDRQKLEKVVEELKELLERLLSGGGGSGGGGSGGGGSGGGGSGGGGSGGGGSGGGGSGGGGSGGGGSGGGGSGGGGSGGGGSGGGGSGGGGSGGGGSDKENILQKIYEIMKTLDQLGHAEASMQVSDLIYEFMKQGDERLLEEAERLLEEVER
# B2: LCB3_v1.2-10GS-LCB1_v1.1 (LCB3-GS10-LCB1) (designed binder)
# chain: NDDELHMQMTDLVYEALHFAKDEEIQKHVFQLFEKATKAYKNKDRQKLEKVVEELKELLERLLSGGSGGSGGSGDKENILQKIYEIMKTLDQLGHAEASMQVSDLIYEFMKQGDERLLEEAERLLEEVER
# B3: LCB1_v1.1-PRO-LCB3_v1.2 (1PRO3) (designed binder)
# chain: DKENILQKIYEIMKTLDQLGHAEASMQVSDLIYEFMKQGDERLLEEAERLLEEVERAGSGGSGGSGGSPVPSTPPTPSPSTPPTPSPSPVPSTPPTPSPSTPPTPSPSPVPSTPPTPSPSTPPTPSPSASGNDDELHMQMTDLVYEALHFAKDEEIQKHVFQLFEKATKAYKNKDRQKLEKVVEELKELLERLLS
# B4: LCB3_v1.2-PRO-LCB1_v1.1 (3PRO1) (designed binder)
# chain: NDDELHMQMTDLVYEALHFAKDEEIQKHVFQLFEKATKAYKNKDRQKLEKVVEELKELLERLLSAGSGGSGGSGGSPVPSTPPTPSPSTPPTPSPSPVPSTPPTPSPSTPPTPSPSPVPSTPPTPSPSTPPTPSPSASGDKENILQKIYEIMKTLDQLGHAEASMQVSDLIYEFMKQGDERLLEEAERLLEEVER
# B5: LCB6-1 (designed binder)
# chain: DREQRLVRFLVRLASKFNLSPEQILQLFEVLEELLERGVSEEEIRKQLEEVAKELG
# B6: LCB6-2 (designed binder)
# chain: DREQRLVRFLVRLASKFNLSMEQILILFDVLEELLERGVSEEEIRKILEEVAKEL
# B7: LCB1-3 (designed binder)
# chain: DKEWILQKIYEIMRLLDELGHAEASMRVSDLIYEFMKQGDERLLEEAERLLEEVER
# B8: LCB1-6GS-LCB1 (designed binder)
# chain: DKEWILQKIYEIMRLLDELGHAEASMRVSDLIYEFMKKGDERLLEEAERLLEEVERGGSGGSDKEWILQKIYEIMRLLDELGHAEASMRVSDLIYEFMKKGDERLLEEAERLLEEVER
# B9: LCB1-12GS-LCB1 (designed binder)
# chain: DKEWILQKIYEIMRLLDELGHAEASMRVSDLIYEFMKKGDERLLEEAERLLEEVERGGSGGSGSGGSGDKEWILQKIYEIMRLLDELGHAEASMRVSDLIYEFMKKGDERLLEEAERLLEEVER
# Molecular target: T1, SARS-COV-2 Spike glycoprotein receptor binding domain (RBD) (SARS-CoV-2, UniProt P0DTC2 319-541)
# Experiment: not given
row,Binder,Kd [nM]
1,B1,0.2
2,B2,0.2
3,B3,0.2
4,B4,0.2

# Molecular target: SARS-COV-2 Spike glycoprotein (SARS-CoV-2, UniProt P0DTC2 14-1208)
# Experiment: estimated Kd for Spike (avidity), Table 10
row,Binder,Kd [nM]
1,B5,0.1
2,B6,0.1
3,B7,0.1
4,B1,0.1
5,B2,0.1
6,B3,0.1
7,B4,0.1

# Molecular target: T1, SARS-COV-2 Spike glycoprotein receptor …
# Experiment: estimated Kd for RBD, Table 10
row,Binder,Kd [nM]
1,B5,0.2
2,B6,0.2
3,B7,0.2
4,B8,0.2
5,B9,0.2

# Molecular target: SARS-COV-2 spike protein on authentic virus, strain 2019 n-COV/USA_WA1/2020 (SARS-CoV-2, UniProt P0DTC2 14-1273)
# Experiment: cell-based or functional assay
row,Binder,SARS-CoV-2 Neutralization IC50 [nM]
1,B5,0.01
2,B6,0.01
3,B7,0.01
4,B8,0.01
5,B9,0.01
